Source: patent US7070943B2 (priority 1998, dated 2006)

Legend:
Type in all cases: cell-based, Human
[1] = system: p21^WAF1/CIP1; test: p21^WAF1/CIP1 expression by flow cytometry in U937 cells; conditions: U937, 170 nM, 72 hours
Experimental: (§1) Following incubations in the absence or presence of ONCONASE®, the cells were washed with phosphate-buffered saline (PBS) and fixed in suspension in either ice-cold 80% ethanol or absolute methanol for up to 24 h. After fixation, the cells were washed twice with PBS and then suspended in 1 ml of 0.25% Triton X-100 (Sigma, St. Louis, Mo., USA) in PBS on ice for 5 min. The cells were then centrifuged (300 g, 5 min), the cell pellet suspended 100 μl PBS containing 0.5 μg of the anti-cyclin (or anti-CKI) mAb and 1% bovine serum albumin (BSA; Sigma), and incubated for 2 h at room temperature. […]
(§2) Cellular fluorescence was measured with the ELITE ESP flow cytometer/cell sorter (Coulter, Miami, Fla., USA) using either argon ion laser (emission at 488 nm) alone or combined with helium-cadmium laser (emitting UV light). In the first case, fluorescence signals were collected using the standard configuration of the flow cytometer (green fluorescence, representing directly or indirectly FITC-labeled antibodies; red fluorescence representing CYCHROME® tagged anti-pRB^T mAb). In the second case, DNA content was analyzed based on DAPI fluorescence (blue emission) excited by UV light, while the anti-pRB^P− mAb (FITC) and anti-pRB^T (Cy-Chrome®) related emission was excited with blue light laser.

[2] = system: U937 cells; test: Growth and viability of U937 cells, trypan blue exclusion; conditions: U937, 170 nM (20 μg/ml)
From the text: FIG. […] The percentage of dead cells was estimated based on the trypan blue exclusion test. The percentage of cells in the respective phases was estimated flow cytometrically based on their DNA content. Apoptotic cells (Ap) were recognized as the cells with fractional DNA content (sub-G1), as previously described;
Human histiocytic lymphoma U-937 cells were purchased from American Type Culture Collection (Manassas, Va., USA) and were maintained in RPMI 1640 medium supplemented with 10% fetal bovine serum, 100 U/ml of penicillin, 100 μg/ml streptomycin and 2 mM glutamine (all from Life Technologies, Grand Island, N.Y., USA). The suspension cultures were passaged by re-seeding the cells at a density of 1×10^5 cells/ml. The cells were studied during their exponential and asynchronous growth, generally within 72 hours of their re-seeding in medium with fresh serum, before reaching density of 8×10^5 cells/ml. The cultures were periodically tested for Mycoplasma infection by staining of cytocentrifuge preparations with the DNA fluorochrome 4,6-diamidino-2-phenylindole (DAPI; Molecular Probes, Eugene, Oreg., USA).
ONCONASE®, provided by Alfacell (Bloomfield, N.J., USA), was diluted in RPMI to the final concentrations as shown in the Results below and figure legends above. […]

[3] = system: p27^KIP1; test: p27^KIP1 expression by flow cytometry in U937 cells; conditions: U937, 170 nM, 72 hours
Experimental: as §1, §2

[4] = system: total pRB; test: Total pRB in U937 cells, anti-pRB^T mAb flow cytometry
From the text: Also shown are cells from the culture at higher cell density (>10^6 cells/ml) where proliferation declined because of cell crowding (d). The cells reacting with anti-pRB^P− were in G0/1 phase (open arrows). The dashed line indicates the upper level of background fluorescence, i.e. of the cells pretreated with alkaline phosphatase. The percentage of cells reacting with anti-pRB^P− mAb was increased in the ONCONASE®-treated and crowded cultures compared to the control. No significant changes in expression of pRB detected by the antibody that reacts with this protein regardless of its phosphorylation status (anti-pRB^T) were observed between ONCONASE®-treated and control cells (not shown).
The status of phosphorylation of pRB in individual cells was monitored using a combination of anti-pRB antibodies, one specifically detecting underphosphorylated pRB (anti-pRb^P− mAb) and another which reacts with total pRB, regardless of its phosphorylation (anti-pRB^T mAb). […] The cells were then rinsed with PBS containing 1% BSA and their pRB associated green (anti-pRB^P−) and red (anti-PRB^T) fluorescence was measured by flow cytometry.
Cellular fluorescence was measured with the ELITE ESP flow cytometer/cell sorter (Coulter, Miami, Fla., USA) using either argon ion laser (emission at 488 nm) alone or combined with helium-cadmium laser (emitting UV light). […]

[5] = system: cyclin D3; test: Western blot of cyclin D3 in U937 cells; conditions: U937, 48 h
Experimental: Anti-cyclin D3 mAb immunofluorescence in combination with DNA content was measured by multiparameter flow cytometry (a). The cells were growing either in the absence (Exp, exponential growth) or in the presence of 170 nM ONCONASE® for 48 hours (Onc). There were 48%, 38% and 14% of cells in G1, S, and G2/M in Exp culture compared with 64%, 24% and 13% cells in G1, S, and G2/M, respectively, in Onc culture. The scattergrams represent bivariate distributions of the cells with respect to their cyclin D3 vs. DNA content associated fluorescence intensities. The upper level of the isotype-matched control (mean fluorescence+3 standard deviations) is marked in the Exp panel with a dashed line. The bar plots represent the mean FITC (anti-cyclin D3 mAb) fluorescence values (arbitrary units) of the cells in different phases of the cycle (gated based on differences in DNA content as shown in the Exp panel), after subtraction of the background fluorescence, i.e., mean fluorescence of the same cells but stained with isotype-matched control IgG antibody. Western blots (b) show expression of cyclin D3 in control culture and in the culture treated with Onconase 48 h;
To reveal specificity of the antibodies that were used, a standard immunoblotting procedure was used on cellular lysates.

B1: ONCONASE®: basic protein of 12,000 MW isolated from oocytes or early embryos of Rana pipiens, homologous to pancreatic RNase A (protein, UniProt P22069 1-104, looked up)
Protein P-30: QDWLTFQKKHITNTRDVDCDNIMSTNLFHCKDKNTFIYSRPEPVKAICKGIIASKNVLTTSEFYLSDCNVTSRPCKYKLKKSTNKFCVTCENQAPVHFVGVGSC
B1 was tested. Which “increase in p21^WAF1/CIP1” value [1] did it give?
Its value is “Over four-fold”.

What about the cell proliferation suppressed ([2]; initial 72 hours of treatment) of the same molecule?
Its cell proliferation suppressed is “approximately 50%”.

What about the cells dead ([2]; initial 72 hours, trypan blue) of the same molecule?
The cells dead was less than 10%.

What about the “increase in p27^KIP1” value [3] of the same molecule?
The value was “Over four-fold”.

What about the “effect on total pRB (anti-pRB^T)” value [4] of the same molecule?
Its value is “no effect”.

And the “expression of cyclin D3, Western blot” value [5]?
Its value is “decrease in expression of cyclin D3”.
